The text below walks through data of publication PMC11353242.

Common to all, as to experiment: pull-down; GFP-CEP55 proteins (355 nM) bound to GFP-Trap Magnetic Agarose beads; taxol-polymerised MTs (545 nM tubulin), pH adapted to 7.5, incubated 1 h at 4 °C; 6 washes; bound MTs detected by Western blot against β tubulin; MTs bound to CEP55^FL set as 100%
(Immunoblotting shows a protein as a band on a membrane.)

Test [1] has as its target His-GFP-CEP55^1–428 (C-terminus, aa 429–464, deleted) (UniProt Q53EZ4).
The target of test [2] is His-GFP-CEP55^59–428 (N- and C-termini deleted) (UniProt Q53EZ4).
Test [3] has as its target His-GFP-CEP55^59–464 (N-terminus, aa 1–58, deleted) (UniProt Q53EZ4).

For “Microtubules polymerised with taxol from tubulin prepared from porcine brain (from UniProt P02550 1-451; Q767L7 1-444) (complex)”, the values for the percent reduction of MT binding against CEP55^FL in test [1], in test [2] and in test [3] were 20%, 60% and 20%, respectively.
